Experimental data as given in patent US8710017B2, “Human and mouse targeting peptides identified by phage display” (priority 2000, dated 2014).
Ends that are not written are not given here.

Legend:
[1] = tested on: endothelial cells; experiment: Endothelial cell migration (chemotaxis) assay with penetratin peptide chimeras; type: cell-based, human; conditions: VEGF-A 20 ng/ml, 5 h, FIG. 16
Experimental: FIG. 16. Effect of penetratin peptide chimeras on endothelial cell migration. Cell migration assay were performed in a 48-well microchemotaxis chamber. Five random high-power fields (magnitude 40×) were counted in each well.
Cell migration assays were performed as follows: 48-well microchemotaxis chambers were used. Polyvinylpyrrolidone-free polycarbonate filters (Nucleopore, Cambridge, Mass.) with 8-μm pores were coated with 1% gelatin for 10 min at room temperature and equilibrated in M199 medium supplemented with 2% FCS. Peptides were placed in the lower compartment of a Boyden chamber in M199 supplemented with 2% FCS, 20 ng/ml VEGF-A (R&D System), and 1 U/ml heparin. Overnight-starved subconfluent cultures were quickly trypsinized, and resuspended in M199 containing 2% FCS at a final concentration of 2×10^6 cells/ml. After the filter was placed between lower and upper chambers, 50 μl of the cell suspension was seeded in the upper compartment. Cells were allowed to migrate for 5 h at 37° C. in a humidified atmosphere with 5% CO2. The filter was then removed, and cells on the upper side were scraped with a rubber policeman. […] Five random high-power fields (magnitude 40×) were counted in each well.
Cell migration was assayed in a 48-well microchemotaxis chamber. […] Five random high-power fields (magnitude 40×) were counted in each well.

[2] = target: T1, β5 integrin cytoplasmic domain (Homo sapiens, UniProt P18084); experiment: Binding of Fyn-phosphorylated phage to β5 cytoplasmic domain
T1 construct: the screenings involving the β5 cytoplasmic domain fusion protein
T1 sequence (P18084 743-799 limits assumed): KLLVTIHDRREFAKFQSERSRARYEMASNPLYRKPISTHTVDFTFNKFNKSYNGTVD
Experimental: Phosphorylation of peptide libraries with src family protein kinases (Fyn, c-Src, Lyn, and Syc) and serine/threonine kinases such as a MAP kinase were performed as described previously (Schmitz et al., 1996; Dente et al., 1997; Gram et al., 1997). Briefly, phage particles were collected from culture supernatants by double precipitation with 20% polyethylene glycol 8000 in 2.5 M NaCl. Particles were dissolved at 10^12 particles/ml. Purified phage (10 μl) were incubated for 3 hours at room temperature with different concentrations (35 to 3,500 units) of protein kinases in a reaction buffer volume of 50 μl. The reaction mixtures were transferred to tubes containing 10 μg of agarose-conjugated anti-P-Tyr, anti-P-Ser, or anti-P-Thr monoclonal antibodies to select phage displaying phosphorylated peptides. […] Phosphorylated peptides binding to β3 and β5 cytoplasmic domains were analyzed as described in the previous section.
Randomly selected clones from rounds III and IV were sequenced from a X4YX4 phosphorylated library with Fyn. […] The ratio of binding to β3 or β5 was calculated by dividing the number of β3 or β5 colonies by GST or BSA colonies found after panning. The ratio of binding to β3 or β5 with phosphorylated phage by Fyn versus unphosphorylated phage was calculated by dividing the number of colonies found after the panning. […]

[3] = tested on: HUVEC; experiment: Apoptosis by chromatin fragmentation (agarose gel) in HUVEC; type: cell-based, human; conditions: 15 μM, 2-4 hours, FIG. 21
Experimental: 10^6 HUVEC were treated with 15 μM of VISY antennapedia (penetratin) chimera or 15 μM of antennapedia peptide (pentratin) alone for 2-4 hours and chromatin fragmentation was analyzed by electrophoresis in an agarose gel.

[4] = tested on: HUVEC cells; experiment: Apoptosis assay (propidium iodide staining, subdiploid population); type: cell-based, human; conditions: 15 μM, 4 hours, FIG. 17
Experimental: FIG. 17. Penetratin peptide chimera binding to the β5 cytoplasmic domain induces programmed cell death. 10^6 HUVEC cells were harvested in complete media and 15 μM penetratin peptide chimeras were added to the cells.
Approximately 1×10^6 cells were harvested in complete media and 15 μM of peptide added for 4, 8, or 12 h. The cells were then washed in PBS and resuspended in 0.5 ml propidium iodide solution (50 μg/ml PI, 0.1% Triton X-100, 0.1% sodium citrate). After a 24-h incubation at 4° C., cells were counted with a XL Coulter (Coulter Corporation) with a 488-nm laser; 12,000 cells were counted for each histogram, and cell cycle distributions were analyzed with Multicycle program.
Approximately 1×10^6 cells were harvested in complete medium, and 15 μM of peptide was added for 4, 8, or 12 hours. The cells were then washed in PBS and resuspended in 0.5 ml propidium iodide solution (50 μg/ml PI, 0.1% Triton X-100, 0.1% sodium citrate). After a 24-h incubation at 4° C., the cells were counted with an XL Coulter (Coulter Corporation) with a 488 nm laser; 12,000 cells were counted for each histogram, and cell cycle distributions were analyzed with the Multicycle program.

[5] = target: T2, GST-β5 integrin (Homo sapiens, UniProt P18084); experiment: Annexin V binding to GST-β5 cytoplasmic domain (ELISA), competition with VISY peptide
T2 construct: Plates were coated with GST fusion proteins of the cytoplasmic domains of various integrins and Annexin V was added to the plates
T2 sequence (P18084 743-799 limits assumed): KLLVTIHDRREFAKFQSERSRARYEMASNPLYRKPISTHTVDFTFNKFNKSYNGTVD
Experimental: (§1) Competitive binding assays were performed to examine the binding of Annexin V to β5 integrin and the effect of the VISY peptide. Plates were coated with GST fusion proteins of the cytoplasmic domains of various integrins and Annexin V was added to the plates. Binding of Annexin V was determined using anti-Annexin V antibodies. […] Calcium was used because Annexin V activity has been reported to be modulated by calcium. Binding of Annexin V to GST-β5 was blocked by addition of the VISY peptide (FIG. 20A).
A reciprocal study was performed, using Annexin V to coat plates and adding GST fusion proteins of integrin cytoplasmic domains. Binding was assessed using anti-GST fusion protein antibodies. […] In some studies, calcium ion appeared to interfere with the binding interaction between GST-β5 and Annexin V, with decreased binding observed in the presence of calcium (not shown).

[6] = target: GST-β1 integrin (Homo sapiens, UniProt P05556); experiment: Annexin V binding to GST-β1 cytoplasmic domain (ELISA); conditions: FIG. 20A
Chain of GST-β1 integrin (P05556 752-798 limits assumed): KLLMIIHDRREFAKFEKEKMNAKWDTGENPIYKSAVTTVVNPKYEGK
Experimental: as §1

[7] = target: T3, GST-β3 integrin (Homo sapiens, UniProt P05106); experiment: Annexin V binding to GST-β3 cytoplasmic domain (ELISA); conditions: FIG. 20A
T3 construct: recombinant fusion proteins containing β3 or β5 cytoplasmic domains
T3 sequence (P05106 742-788 limits assumed): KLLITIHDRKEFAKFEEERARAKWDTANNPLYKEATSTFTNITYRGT
Experimental: as §1

[8] = target: T4, β3 integrin cytoplasmic domain (Homo sapiens, UniProt P05106); experiment: Phage binding to immobilized GST-β3cyto
T4 construct: recombinant fusion proteins containing β3 or β5 cytoplasmic domains
T4 sequence (P05106 742-788 limits assumed): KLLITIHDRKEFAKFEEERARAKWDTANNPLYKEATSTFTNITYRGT
Experimental: FIG. 9. Binding of β3 cytoplasmic domain-selected phage to immobilized proteins. GST fusion proteins or GST alone were coated on microtiter wells at 10 μg/ml and used to bind phage expressing endostatin targeting peptides. […] The data represent the mean colony counts from triplicate wells, with standard error of less than 10% of the mean.
β3 and β5 cytoplasmic domain-binding peptides were isolated by screening multiple phage libraries with recombinant GST fusion proteins that contained either GST-β3cyto or GST-β5cyto coated onto microtiter wells. Immobilized GST was used as a negative control for enrichment during the panning of each cytoplasmic domain. Phage were sequenced from randomly selected clones after three rounds of panning as disclosed elsewhere (Koivunen et al., 1995; Pasqualini et al., 1995). Distinct sequences were isolated that interacted specifically with the β3 or with the β5 cytoplasmic domains (Table 9). Randomly selected clones from panning rounds II and III were sequenced. […] The ratios were calculated by dividing the number of colonies recovered from β3-GST-coated wells and those recovered from GST or BSA.
The specificity of the interaction with β3 or β5 cytoplasmic domains was determined by calculating the ratios between the number of phage bound to the cytoplasmic domain containing-fusion proteins (β3 or β5) versus GST alone (negative control). […]

[9] = tested on: mouse spleen; experiment: In vivo spleen targeting of Fab phage clones by BRASIL; conditions: 5 minutes circulation, FIG. 5
[10] = tested on: mouse spleen cells; experiment: In vitro binding of Fab phage clones to spleen cells by BRASIL; type: cell-based
Experimental: A singe cell suspension was prepared from two mouse spleens. The suspension was divided into five tubes and incubated on ice with 3×10^9 TU of Fab clones #2, #6, #10, #12 and 2×10^9 TU tet-phage. Phage bound to mouse spleen cells were recovered by BRASIL. 200 μl of log phase ER2537 E. coli was infected with the pellet and serial dilutions were plated on LB/carbenicillin and LB/tetracyclin plates for assessment of phage binding. Fd-tet was used as an internal control to normalize all the phage homing experiments.

## GLDTYRGSP [TYR-11 tested as penetratin chimera]
[1]
  effect on endothelial cell migration: increase cell migration

## TLRKYFHSS
[2]; X4YX4 library phosphorylated with Fyn
  β3 or β5/GST: 5.6

## VISY-penetratin chimera: chimeric peptide containing VISY peptide (VVISYSMPD) linked to penetratin (antennapedia), plus a biotin moiety (VVISYSMPDRQIKIWFQNRRMKWKK; also: plus a biotin moiety, site not given here)
[3]
  induction of apoptosis (chromatin fragmentation): induction of apoptosis
[4]
  induction of apoptosis (PI staining): induction of apoptosis

## Annexin V: 36 kDa endogenous protein analog of the VISY peptide, ligand of β5 integrin cytoplasmic domain
[5]; FIG. 20A
  binding of Annexin V to GST-β5 integrin: bound strongly
[5]; Tris-buffered saline (TBS)
  binding of Annexin V to GST-β5 integrin: Low binding
[5]; cytoplasmic buffer with or without added calcium (2 mM)
  binding of Annexin V to GST-β5 integrin: high binding
[6]
  binding of Annexin V to GST-β1 integrin: did not bind
[7]
  binding of Annexin V to GST-β3 integrin: did not bind

## TMLRYFMFP
[2]; phage phosphorylated by Fyn versus unphosphorylated phage
  Phos/Unphos: 4.2

## AGWLYMSWK
[8]; colonies from β3-GST-coated wells divided by those from BSA
  β3/BSA Ratio: 2.4
[8]; colonies from β3-GST-coated wells divided by those from GST
  β3/GST Ratio: 1.8

## SDNRYIGSW [Y-18 tested as penetratin chimera]
[1]
  effect on endothelial cell migration: increase cell migration

B1: Fab clone #6: chicken Fab phage clone from α-spleen library, localized in mouse spleen (protein)
scFv: CQPAMAAVTLDESGGGLQTPGGTLSLVCKASGISIGYGMNWVRQAPGKGLEYVASISGDGNFAHYGAPVKGRATISRDDGQNTVTLQLNNLR
modifications: Fab format
[9]
  binding to spleen compared to Fd-tet phage: many-fold increased binding to spleen
[10]; FIG. 3
  binding to mouse spleen cells compared to Fd-tet insertless control phage: lowest degree of differential binding
[10]; FIG. 4
  binding to mouse spleen cells, direct comparison with NPC-3TT: only slightly higher than the binding of phage NPC-3TT
